From article PMC7060239 (2020)
One block for each binder: values may come before it.

What was measured:
[1] = target: T1, PHD finger of human UHRF1 (residues 299–366) (human, UniProt Q96T88 299-366); test: ITC
T1 chain: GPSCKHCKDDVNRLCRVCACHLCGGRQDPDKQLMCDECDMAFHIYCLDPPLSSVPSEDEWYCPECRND

[2] = target: T2, human DNMT1 RFTS domain, residues 351–600 (human, UniProt P26358 351-600); test: ITC
T2 chain: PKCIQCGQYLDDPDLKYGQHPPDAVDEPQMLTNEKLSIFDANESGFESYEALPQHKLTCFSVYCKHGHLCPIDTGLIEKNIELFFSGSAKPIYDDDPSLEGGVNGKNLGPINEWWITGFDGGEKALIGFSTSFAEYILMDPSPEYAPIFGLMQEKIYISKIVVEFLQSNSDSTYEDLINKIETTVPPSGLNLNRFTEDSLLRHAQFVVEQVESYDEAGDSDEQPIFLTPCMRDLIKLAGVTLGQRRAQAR

- Kd [1]: 5.7 µM
Binder: VRTAADSVPG [hPAF15_(2-11)-K5A peptide]

- Kd [2]: 6 µM
B1: PAF15_(2-30) unmodified (peptide)
chain: VRTKADSVPGTYRKVVAARAPRKVLGSST
modifications: unmodified (no ubiquitin); taken as wild-type K15/K24, since the text describes K15C/K24C only for preparing the ubiquitylated analogs
